# Literature values in PMC10243098.
# Molecular target: histone H4 N-terminal 20-mer peptide-CoA bisubstrate inhibitor 1-20 (Homo sapiens) (UniProt P62805)
# Sequence of HAT1 (O14929 2-419): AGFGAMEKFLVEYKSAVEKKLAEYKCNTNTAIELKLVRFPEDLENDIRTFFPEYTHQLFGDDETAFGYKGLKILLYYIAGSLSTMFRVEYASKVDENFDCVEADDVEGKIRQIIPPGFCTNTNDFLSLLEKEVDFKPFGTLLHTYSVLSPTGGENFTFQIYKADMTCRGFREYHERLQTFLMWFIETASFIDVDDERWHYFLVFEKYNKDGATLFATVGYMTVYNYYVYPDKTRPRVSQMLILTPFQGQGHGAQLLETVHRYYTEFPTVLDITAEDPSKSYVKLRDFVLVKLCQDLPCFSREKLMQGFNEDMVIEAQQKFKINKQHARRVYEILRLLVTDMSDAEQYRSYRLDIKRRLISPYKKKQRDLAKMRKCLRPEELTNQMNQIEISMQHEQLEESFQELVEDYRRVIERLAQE
substance,measurement,value
HAT1 (from UniProt O14929),Ki,1 nM
